Measurements taken from the supplement of paper PMC9233669.
Fewer inactive variants are shown than the library holds.

Key:
biotinyl-Val-oxazolone = assay: self-aminoacylation, catalytic enhancement (BVO) (fold over background); higher = more active; k-Seq, kA / k0A0; sequences stand for … in GGGAAUGGAUCCACAUCUACGAAUUC…UUCACUGCAGACUUGACGAAGCUG
Method in brief: (§1)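 Catalytic enhancement equals the median kA over the uncatalyzed rate, the latter read from the low-activity peak of a bimodal Gaussian fit. Values of kA came from fitting each sequence's fraction reacted to a pseudo-first-order model, with 1000 bootstraps. Reacted RNA was captured with streptavidin and quantified by triplicate qPCR and Illumina sequencing after 90 minutes at room temperature with 2–1250 μM biotinyl-aminoacyl-oxazolone and 0.43 μM mutagenized RNA pools bearing a 21-nt variable region.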

biotinyl-Trp-oxazolone = assay: self-aminoacylation, catalytic enhancement (BWO) (fold over background); higher = more active; k-Seq, kA / k0A0; sequences stand for … in GGGAAUGGAUCCACAUCUACGAAUUC…UUCACUGCAGACUUGACGAAGCUG
Method in brief: as §1

biotinyl-Met-oxazolone = assay: self-aminoacylation, catalytic enhancement (BMO) (fold over background); higher = more active; k-Seq, kA / k0A0; sequences stand for … in GGGAAUGGAUCCACAUCUACGAAUUC…UUCACUGCAGACUUGACGAAGCUG
Method in brief: as §1

biotinyl-Ile-oxazolone = assay: self-aminoacylation, catalytic enhancement (BIO) (fold over background); higher = more active; k-Seq, kA / k0A0; sequences stand for … in GGGAAUGGAUCCACAUCUACGAAUUC…UUCACUGCAGACUUGACGAAGCUG
Method in brief: as §1

biotinyl-Leu-oxazolone = assay: self-aminoacylation, catalytic enhancement (BLO) (fold over background); higher = more active; k-Seq, kA / k0A0; sequences stand for … in GGGAAUGGAUCCACAUCUACGAAUUC…UUCACUGCAGACUUGACGAAGCUG
Method in brief: as §1

biotinyl-Phe-oxazolone = assay: self-aminoacylation, catalytic enhancement (BFO) (fold over background); higher = more active; k-Seq, kA / k0A0; sequences stand for … in GGGAAUGGAUCCACAUCUACGAAUUC…UUCACUGCAGACUUGACGAAGCUG
Method in brief: as §1

Sequence	self-aminoacylation (biotinyl-Val-oxazolone)	self-aminoacylation (biotinyl-Trp-oxazolone)	self-aminoacylation (biotinyl-Met-oxazolone)	self-aminoacylation (biotinyl-Ile-oxazolone)	self-aminoacylation (biotinyl-Leu-oxazolone)	self-aminoacylation (biotinyl-Phe-oxazolone)
CCAUACUUCAAGCGAUCGGUC [Fam1B.1 aminoacylation ribozyme variant]	1.25	0.926	1.02	1.15	0.976	1.17
CCCCACUUCAAGCAAUCCGUC [Fam1B.1 aminoacylation ribozyme variant]	1.6	2.64	1	1.62	1.02	3.48
CCCCACUUCAAGCAAUCGGGC [Fam1B.1 aminoacylation ribozyme variant]	2.92	5.69	3.15	2.37	2.43	4.2
CCCCACUUCAAGCAAUCGGUC [Fam1B.1 aminoacylation ribozyme variant]	1.83	31.5	1.48	1.54	1.97	57.5
CCCCUUCAAACAAUCGGUCUG [Fam1A.1 aminoacylation ribozyme variant]	2.44	72.5	2.05	1.79	3.29	185
CCGCACUGCAAGCAAUCGGUC [Fam1B.1 aminoacylation ribozyme variant]	1.81	1.42	1.21	1.52	1.17	1
CCGCACUUCAAGCACUCGGUC [Fam1B.1 aminoacylation ribozyme variant]	1.79	1.55	1.44	1.38	1.64	1.93
CCGCACUUCAAGCAUUCGGUC [Fam1B.1 aminoacylation ribozyme variant]	2.28	1.76	1.85	2.17	1.62	1.88
CCGCACUUCAGGCAAUCGGUC [Fam1B.1 aminoacylation ribozyme variant]	2.87	2.88	1.98	1.76	2.33	6.33
CCGGACUUCAAGCAAUCGGUC [Fam1B.1 aminoacylation ribozyme variant]	1.71	26.3	1.31	1.5	2.03	39.3
CCUCAAUUCAAGCAAUCGGUC [Fam1B.1 aminoacylation ribozyme variant]	0.943	3.57	0.916	1.07	1.04	6.19
CCUCACAUCAAGCAAUCGGUC [Fam1B.1 aminoacylation ribozyme variant]	0.973	1.05	0.749	0.87	0.726	1.77
CCUCACUUCAAGCAAUCGCUC [Fam1B.1 aminoacylation ribozyme variant]	1.18	0.912	1.15	1.16	1.36	1.27
CCUCACUUCAAGCAAUCGGCC [Fam1B.1 aminoacylation ribozyme variant]	2.39	5.38	1.53	1.9	1.59	5.49
CCUCACUUCAAGCAAUCGGUC [Fam1B.1 aminoacylation ribozyme variant]	1.21	22.4	1.07	1.07	1.58	55.7
CCUCACUUCAAGCAAUCGGUU [Fam1B.1 aminoacylation ribozyme variant]	1.61	6.83	1.45	1.34	1.7	9.36
CCUCACUUCAAGCAAUCUGUC [Fam1B.1 aminoacylation ribozyme variant]	0.515	0.563	0.343	0.458	0.313	1.03
CCUCACUUCAAGCAAUUGGUC [Fam1B.1 aminoacylation ribozyme variant]	0.606	0.673	0.562	0.654	0.506	1.67
CCUCACUUCAGGCAAUCGGUC [Fam1B.1 aminoacylation ribozyme variant]	0.932	0.952	0.951	0.856	0.947	1.59
CCUCACUUCGAGCAAUCGGUC [Fam1B.1 aminoacylation ribozyme variant]	1.04	1.16	0.881	1.08	1.04	2.23
CCUCAGUUCAAGCAAUCGGUC [Fam1B.1 aminoacylation ribozyme variant]	1.03	3.37	1.17	1.12	1.36	5.46
CGACACAUCAAGCAAUCGGUC [Fam1B.1 aminoacylation ribozyme variant]	1.13	0.828	0.811	1.01	1.09	1.47
CGACACUACAAGCAAUCGGUC [Fam1B.1 aminoacylation ribozyme variant]	1	0.675	0.769	0.935	0.755	0.638
CGACACUUCAACCAAUCGGUC [Fam1B.1 aminoacylation ribozyme variant]	1.6	13.4	1.61	1.38	1.65	18.2
CGACACUUCAAGCAAACGGUC [Fam1B.1 aminoacylation ribozyme variant]	0.76	0.612	0.687	0.814	0.537	0.979
CGACACUUCAAGCAAUCGGCC [Fam1B.1 aminoacylation ribozyme variant]	3.32	3.53	1.79	3.11	2.84	3.39

Sequence	self-aminoacylation (biotinyl-Val-oxazolone)	self-aminoacylation (biotinyl-Trp-oxazolone)	self-aminoacylation (biotinyl-Met-oxazolone)	self-aminoacylation (biotinyl-Ile-oxazolone)	self-aminoacylation (biotinyl-Leu-oxazolone)	self-aminoacylation (biotinyl-Phe-oxazolone)
CGACACUUCAAGGAAUCGGUC [Fam1B.1 aminoacylation ribozyme variant]	1.73	1.84	1.42	2.39	1.89	3.19
CGACAUUUCAAGCAAUCGGUC [Fam1B.1 aminoacylation ribozyme variant]	1.17	1.33	1.09	1.18	1.06	1.28
CGACGUCAAACAAUCGGUCUG [Fam1A.1 aminoacylation ribozyme variant]	1.66	1.82	1.84	1.25	1.24	4.02
CGACUACAAACAAUCGGUCUG [Fam1A.1 aminoacylation ribozyme variant]	1.15	1.31	1.22	1.09	0.926	2.44
CGACUUCAAACAAUCAGUCUG [Fam1A.1 aminoacylation ribozyme variant]	0.893	10.2	1.01	0.938	1.27	28.2
CGACUUCAAACAAUCGGUAUG [Fam1A.1 aminoacylation ribozyme variant]	1.28	5.6	1.16	1.09	1.3	10.8
CGACUUCAAACAAUCGGUCUC [Fam1A.1 aminoacylation ribozyme variant]	1.35	31.1	1.59	1.52	1.99	53.8
CGACUUCAAACAAUCGGUCUU [Fam1A.1 aminoacylation ribozyme variant]	1.71	12.7	1.26	1.64	1.77	18.2
CGACUUCAAACAAUUGGUCUG [Fam1A.1 aminoacylation ribozyme variant]	0.891	1.25	0.91	1.06	0.999	1.57
CUAAUUCAAACAAACGGUCUG [Fam1A.1 aminoacylation ribozyme variant]	0.917	0.543	0.616	0.823	0.561	0.687
CUAAUUCAAACAAUCGAUCUG [Fam1A.1 aminoacylation ribozyme variant]	0.561	0.361	0.43	0.604	0.544	0.72
CUAAUUCAAACAAUCGGUUUG [Fam1A.1 aminoacylation ribozyme variant]	0.724	2.78	0.701	0.802	0.696	3.96
CUACACUUCAAGCAAUCGGGC [Fam1B.1 aminoacylation ribozyme variant]	1.42	2.02	1.95	1.48	1.27	0.999
CUACACUUCAAGCAAUGGGUC [Fam1B.1 aminoacylation ribozyme variant]	0.536	0.47	0.494	0.65	0.542	0.544
CUACAUCAAAAAAUCGGUCUG [Fam1A.1 aminoacylation ribozyme variant]	0.745	0.753	0.712	0.831	0.633	1.35
CUACAUCAAACAAUCGCUCUG [Fam1A.1 aminoacylation ribozyme variant]	0.878	0.67	0.777	0.803	0.89	0.457
CUACAUCAAACAAUCGGGCUG [Fam1A.1 aminoacylation ribozyme variant]	1.3	1.29	1.44	1.36	0.965	0.764
CUACAUCAAACAAUCGGUCUG [Fam1A.1 aminoacylation ribozyme variant]	0.82	1.41	0.759	0.799	0.736	2.27
CUACAUCAAACAAUCGGUCUU [Fam1A.1 aminoacylation ribozyme variant]	0.748	1.25	0.791	0.69	0.615	1.45
CUACAUCAAACAAUCUGUCUG [Fam1A.1 aminoacylation ribozyme variant]	0.736	0.497	0.533	0.722	0.624	0.795
CUACAUCAAACACUCGGUCUG [Fam1A.1 aminoacylation ribozyme variant]	1.26	1.11	1.03	1.03	0.978	3.01
CUACAUCAAAUAAUCGGUCUG [Fam1A.1 aminoacylation ribozyme variant]	0.864	0.824	0.804	0.801	0.717	1.42
CUACAUUAAACAAUCGGUCUG [Fam1A.1 aminoacylation ribozyme variant]	0.819	0.75	1.14	0.992	0.898	0.647
CUACAUUUCAAGCAAUCGGUC [Fam1B.1 aminoacylation ribozyme variant]	0.849	1.45	0.748	0.887	0.705	2.41
CUACCUAAAACAAUCGGUCUG [Fam1A.1 aminoacylation ribozyme variant]	0.991	0.697	0.761	0.883	0.624	0.787
